This note sets out measurements from patent publication US5733790, “CRF binding protein antibodies and assays using same” (The Salk Institute for Biological Studies, dated 1998).

The experiment deals with T1, rat/human corticotropin releasing factor (human and rat (same 41-residue sequence), C-terminal amide (NH2)).
T1 peptide: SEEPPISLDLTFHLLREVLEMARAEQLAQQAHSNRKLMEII
In words: binding assay, method not described.

B1: purified human CRF-BP (native 37 kD protein purified from human plasma) (other)
chain: YLELREAADYDPFLLFSANLKRELAGEQPYRRALRCLDMLSLQGQFTFTADRPQLHCAAFFISEPEEFITIHYDQVSIDCQGGDFLKVFDGWILKGEKFPSSQDHPLPSAERYIDFCESGLSRRSIRSSQNVAMIFFRVHEPGNGFTLTIKTDPNLFPCNVISQTPNGKFTLVVPHQHRNCSFSIIYPVVIKISDLTLGHVNGLQLKKSSAGCEGIGDFVELLGGTGLDPSKMTPLADLCYPFHGPAQMKVGCDNTVVRMVSSGKHVNRVTFEYRQLEPYELENPNGNSIGEFCLSGL
In general, Kd refers to a measure of binding affinity in units of concentration. Low readings indicate tighter binding, high ones weaker binding. B1 returned a Kd of 0.1 nM. That is a sub-nanomolar value.
